The record followed here is the RNAGym collection of RNA variant scans (doi:10.7554/elife.80360).

B1: CPEB3 Ribozyme (parent)
chain: GGGGGCCACAGCAGAAGCGUUCACGUCGCGGCCCCUGUCAGAUUCUGGUGAAUCUGCGAAUUCUGCUGU

The variants in the data set derive from B1. Kind of data set: self-cleavage, relative activity (ratio to wild type); higher = more cleavage; co-transcriptional.
In the case of GGGGGCCACAGCAGAAGGGUUCACGUCGCGGCCCCUGUCAGAUUCUGGUGAAACUGCGAAUUCUGCUGU, the self-cleavage is 0.177. Next, GGGGGCCACAGCAGAAGGGUUCACGUCGCGGCCCCUGUCAGAUUCUGGUGAACCUGCGAAUUCUGCUGU: 0.0868; GGGGGCCACAGCAGAAGGGUUCACGUCGCGGCCCCUGUCAGAUUCUGGUGAAGCUGCGAAUUCUGCUGU: 0.199. Next, GGGGGCCACAGCAGAAGGGUUCACGUCGCAGCCCCUGUCAGAUUCUGGUGAAUCUGCGAAUUCUGCUGU: 0.236; GGGGGCCACAGCAGAAGGGUUCACGUCGCCGCCCCUGUCAGAUUCUGGUGAAUCUGCGAAUUCUGCUGU: 0.167.

Regarding GGGGGCCACAGCAGAAGGGUUCACGUCGCUGCCCCUGUCAGAUUCUGGUGAAUCUGCGAAUUCUGCUGU, the self-cleavage was 0.183. Next, GGGGGCCACAGCAGAAGGGUUCACGUCGCGGCCCCAGUCAGAUUCUGGUGAAUCUGCGAAUUCUGCUGU: 0.12. Next, GGGGGCCACAGCAGAAGGGUUCACGUCGCGGCCCCCGUCAGAUUCUGGUGAAUCUGCGAAUUCUGCUGU: 0.122; GGGGGCCACAGCAGAAGGGUUCACGUCGCGGCCCCGGUCAGAUUCUGGUGAAUCUGCGAAUUCUGCUGU: 0.145; GGGGGCCACAGCAGAAGGGUGCACGUCGCGGCCCCUGUCAGAUUCUGGUGAAUCUGCGAAUUCUGCUGU: 0.174. In the case of GGGGGCCACAGCAGAAGGGUCCACGUCGCGGCCCCUGUCAGAUUCUGGUGAAUCUGCGAAUUCUGCUGU, the self-cleavage turned out to be 0.219.

On to GGGGGCCACAGCAGAAGGGUUCACGUCGCGGCCCCUGUCAGAUUCUGGUGAAUCUGCGAAUUCUGCUGA, for which the self-cleavage worked out at 0.26. Next, GGGGGCCACAGCAGAAGGGUUCACGUCGCGGCCCCUGUCAGAUUCUGGUGAAUCUGCGAAUUCUGCUGG: 0.252; GGGGGCCACAGCAGAAGGGUUCACGUCGCGGCCCCUGUCAGAUUCUGGUGAAUCUGCGAAUUCUGCUGC: 0.352; GGGGGCCACAGCAGAAGGGUUCACGUCGCGGCCCCUGCCAGAUUCUGGUGAAUCUGCGAAUUCUGCUGU: 0.234. Next, GGGGGCCACAGCAGAAGGGUUCACGUCGCGGCCCCUGGCAGAUUCUGGUGAAUCUGCGAAUUCUGCUGU: 0.155. Next, GGGGGCCACAGCAGAAGGGUUCACGUCGCGGCCCCUGUCAAAUUCUGGUGAAUCUGCGAAUUCUGCUGU: 0.113; GGGGGCCACAGCAGAAGGGUUCACGUCGCGGCCCCUGUCACAUUCUGGUGAAUCUGCGAAUUCUGCUGU: 0.0964.

As for GGGGGCCACAGCAGAAGGGUUCACGUCGCGGCCCCUGUCAUAUUCUGGUGAAUCUGCGAAUUCUGCUGU, the self-cleavage stood at 0.134. As to GGGGGCCACAGCAGAAGGGUUCACGUCGCGGCCCCUGUCAGAUUCUGGGGAAUCUGCGAAUUCUGCUGU, the self-cleavage was determined as 0.217. For the variant GGGGGCCACAGCAGAAGGGUUCACGUCGCGGCCCCUGUCAGAUUCUGGCGAAUCUGCGAAUUCUGCUGU, the self-cleavage was found to be 0.147. Next, GGGGGCCACAGCAGAAGUGUUCACGUCGCGGCCCCUGUCAGAUUCUGGUGAAUCUGCGAAUUCUGCUGU: 0.926; GGGGGCCACAGCAGAAGUGUUCACGUCGCGGCCCCUGUCAGAUUCUGGUGAGUCUGCGAAUUCUGCUGU: 0.923.

GGGGGCCACAGCAGAAGUGUUCACGUCGCGGCCCCUGUCAGAUUCUGGUGACUCUGCGAAUUCUGCUGU: the self-cleavage was found to be 0.759. Next, GGGGGCCACAGCAGAAGGGUUCACGCCGCGGCCCCUGUCAGAUUCUGGUGAAUCUGCGAAUUCUGCUGU: 0.175; GGGGGCCACAGCAGAAGGGUUCACGGCGCGGCCCCUGUCAGAUUCUGGUGAAUCUGCGAAUUCUGCUGU: 0.267; GGGGGCCACAGCAGAAGGGUUCACGACGCGGCCCCUGUCAGAUUCUGGUGAAUCUGCGAAUUCUGCUGU: 0.119. Next, GGGGGCCACAGCAGAAGGGUUCACGUCGCGACCCCUGUCAGAUUCUGGUGAAUCUGCGAAUUCUGCUGU: 0.0986. Next, GGGGGCCACAGCAGAAGGGUUCACGUCGCGUCCCCUGUCAGAUUCUGGUGAAUCUGCGAAUUCUGCUGU: 0.181; GGGGGCCACAGCAGAAGGGUUCACGUCGCGCCCCCUGUCAGAUUCUGGUGAAUCUGCGAAUUCUGCUGU: 0.142; GGGGGCCACAGCAGAAGGGUUCACGUCGCGGCCCCUGUCAGAUACUGGUGAAUCUGCGAAUUCUGCUGU: 0.116. Consider GGGGGCCACAGCAGAAGGGUUCACGUCGCGGCCCCUGUCAGAUUCUGGUGAAUCUGCGAAUUCCGCUGU, for which the self-cleavage is 0.1. Next, GGGGGCCACAGCAGAAGGGUUCACGUCGCGGCCCCUGUCAGAUUCUGGUGAAUCUGCGAAUUCAGCUGU: 0.228; GGGGGCCACAGCAGAAGGGUUCACGUCGCGGCCCCUGUCAGAUUCUGGUGAAUCUGCGAAUUCGGCUGU: 0.159; GGGGGCCACAGCAGAAGGGUUCACCUCGCGGCCCCUGUCAGAUUCUGGUGAAUCUGCGAAUUCUGCUGU: 0.092. Next, GGGGGCCACAGCAGAAGGGUUCACUUCGCGGCCCCUGUCAGAUUCUGGUGAAUCUGCGAAUUCUGCUGU: 0.151; GGGGGCCACAGCAGAAGGGUUCACGUCGCGGCCCCUGUCAGAUUCUGGUGAAUCUGCCAAUUCUGCUGU: 0.154; GGGGGCCACAGCAGAAGGGUUCACGUCGCGGCCCCUGUCAGAUUCUGGUGAAUCUGCUAAUUCUGCUGU: 0.176. Next, GGGGGCCACAGCAGAAGGGCUCACGUCGCGGCCCCUGUCAGAUUCUGGUGAAUCUGCGAAUUCUGCUGU: 0.0509.
